Test results published in IntAct's records for PubMed 25465129.

Molecular target: ab1ip_mouse Apbb1ip (UniProt Q8R5A3)
UniProt Q8R5A3, sequence (Q8R5A3 whole entry): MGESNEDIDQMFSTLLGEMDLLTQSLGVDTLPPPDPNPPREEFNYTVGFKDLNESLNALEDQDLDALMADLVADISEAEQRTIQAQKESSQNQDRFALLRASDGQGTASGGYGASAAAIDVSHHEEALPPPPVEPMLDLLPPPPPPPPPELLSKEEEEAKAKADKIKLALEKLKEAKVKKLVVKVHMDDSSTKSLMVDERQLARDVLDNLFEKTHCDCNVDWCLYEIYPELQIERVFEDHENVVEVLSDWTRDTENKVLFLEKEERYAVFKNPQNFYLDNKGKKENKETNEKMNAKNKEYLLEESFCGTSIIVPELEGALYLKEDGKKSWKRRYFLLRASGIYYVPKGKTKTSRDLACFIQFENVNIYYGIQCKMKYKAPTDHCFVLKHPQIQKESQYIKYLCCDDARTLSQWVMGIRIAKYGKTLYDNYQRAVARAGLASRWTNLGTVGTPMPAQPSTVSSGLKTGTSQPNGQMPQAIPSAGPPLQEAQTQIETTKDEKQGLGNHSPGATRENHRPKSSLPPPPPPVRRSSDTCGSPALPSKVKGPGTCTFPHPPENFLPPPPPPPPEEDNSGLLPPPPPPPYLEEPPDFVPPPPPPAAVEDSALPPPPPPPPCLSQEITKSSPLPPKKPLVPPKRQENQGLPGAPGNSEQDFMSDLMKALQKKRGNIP

effect of a mutation on the interaction | Substance
disrupting interaction strength | Talin-1 (Mus musculus), P26039 V871Y;V1540Y
decreasing interaction strength | Talin-1 (Mus musculus), P26039 V1540Y
decreasing interaction strength | Talin-1 (Mus musculus), P26039 V871Y
